Key:
[1] = target: T1, 인간 BAG2 단백질 (human, UniProt O95816 2-211, limits assumed); assay: immunoblot screening of hybridomas
T1 construct: also called BAG2 폴리펩티드; human BAG2

[2] = target: T2, GST-Bag Full (GST와 융합된 전장 BAG2 폴리펩티드) (human, UniProt O95816 1-211); assay: immunoblot on lysate of HEK293T cells with the GST-Bag Full vector, signal at about 50 kDa
T2 construct: Expressed in HEK293T cells, detected in lysate at about 50 kDa by immunoblot; not shown: GST tag, about 26 kDa, of the pcDNA3.1+/GST vector (NovoPro Bioscience)
T2 sequence (O95816 whole entry): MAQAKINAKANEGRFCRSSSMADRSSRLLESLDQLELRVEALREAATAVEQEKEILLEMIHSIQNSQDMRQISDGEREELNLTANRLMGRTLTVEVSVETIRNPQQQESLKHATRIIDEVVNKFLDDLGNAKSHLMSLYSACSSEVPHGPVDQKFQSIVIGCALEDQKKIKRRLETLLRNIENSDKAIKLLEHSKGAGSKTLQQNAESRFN

[3] = target: T1, 인간 BAG2 단백질; assay: immunoblot on MDA-MB-231 cell lysate

T1 sequence (O95816 2-211 limits assumed): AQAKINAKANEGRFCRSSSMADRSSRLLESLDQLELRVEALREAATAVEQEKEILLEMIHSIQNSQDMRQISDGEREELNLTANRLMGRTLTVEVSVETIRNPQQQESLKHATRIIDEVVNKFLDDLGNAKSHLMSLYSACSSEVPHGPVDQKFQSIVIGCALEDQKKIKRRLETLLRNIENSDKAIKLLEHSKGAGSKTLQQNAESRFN

binding result [1] | binding result [2] | binding result [3] | Binder
binds | binds |  | 2A11 항체 (antibody, V domains shown, Mouse monoclonal antibody from a hybridoma; also called 항-BAG2 항체 2A11) VH: QVQLQQPGAELVRPGASVTLSCKASGYTFTDYEMHWVKQTPVHGLEWIGIIDPETGGTAYNQKFKGKATLTADKSSSTAYMELRSLTSEDSAVYYCTRGKFYYSGRDYAMDYWGQGTSVTVSS VL: DVLMTQTPLSLPVSLGDQASISCRSSQSIVHSNGNTYLEWYLQKPGQSPKLLIYKVSNRFSGVPDRFSGSGSGTDFTLKISRVEAEDLGVYFCFQGSQVPPTFGGGTKLEIK
 | binds | binds | 4C2 항체 (antibody, V domains shown, Mouse monoclonal antibody from a hybridoma; also called 항-BAG2 항체 4C2) VH: QVQLQQPGAELVRPGASVTLSCKASGYTFTDYEMHWVKQTPVHGLEWIGIIDPETGATAYNQKFKGKATLTADKSSSTAYMELRSLTSEDSAVYYCTRGKFYYSGRDYAMDYWGQGTSVTVSS VL: DVLMTQTPLSLPVSLGDQASISCRSSQSIVHSNGNTYLEWYLQKPGQSPKLLFYKVSNRFSGVPDRFSGSGSGTDFTLKISRVEAEDLGVYFCFQGSQVPPTFGGGTKLEIK
 | binds | binds | 8C4 항체 (antibody, V domains shown, Mouse monoclonal antibody from a hybridoma; also called 항-BAG2 항체 8C4) VH: QVQLQQPGAELVRPGASVTLSCKASGYTFTDYEMHWVKQTPVHGLEWIGIIDPETAGTAYNQKFKGKATLTADKSSSTAYMELRSLTSEDSAVYYCTRGKFYYSGRDYAMDYWGQGTSVTVSS VL: DVLMTQTPLSLPVSLGDQASISCRSSQSIVHSNGNTYLEWYLQKPGQSPKLLFYKVSNRFSGVPDRFSGSGSGTDFTLKISRVEAEDLGVYFCFQGSQVPPTFGGGTKLEIK
 | binds | binds | 3G8 항체 (antibody, V domains shown, Mouse monoclonal antibody from a hybridoma; Biotinylated when used as detecting antibody in the sandwich ELISA; also called 항-BAG2 항체 3G8) VH: QIQLVQSGPELKKPGETVKISCKASGYSFTKYGMNWVKQAPGKDIKWMGWINTNTGEATYGEEVKGRFAFSLETSASTAYLQINNLKNEDTATYFCARLGLRYLDYWGQGTTLTVSS VL: DIVMTQSPASLVVSLGQRATISCRASKSVSTSDYSYMHWYQQKPGQPPKVLIYLASNLESGVPARFSGSGSGTDFTLNIHPVEEEDAATYYCQHNRELPPTFGAGTKLELK
binds | binds |  | 3F12 항체 (antibody, V domains shown, Mouse monoclonal antibody from a hybridoma; Biotinylated when used as detecting antibody in the sandwich ELISA; also called 항-BAG2 항체 3F12) VH: QVQLQESGPDLVKPSQSLSLTCTVTGYSITSGYSWHWIRQFPGNKLEWMGYIYYRGSTNYNPSLKSRISITRDTSKNQFFLLLKSVTTEDTATYYCAREAYWGQGTLVTVSA VL: not shown

Reference: patent publication KR20200098329A (dated 2020)
